Measurements published in publication PMC7788105 (iScience, 2020).

Target: T1, human PD-1 (programmed cell death receptor 1) (human, UniProt Q15116 25-170, 15N-labeled in the AIDA-NMR assay; covalently labeled with a fluorophore in the MST assay)
T1 construct: Programmed cell death receptor 1 (PD-1, CD279), human; In the cell-based ICB assays hPD-1 stands on Jurkat effector cells; also called hPD-1; CD279
Assay: MST; hPD-1 covalently labeled with a fluorophore, incubated with increasing concentrations of unlabeled hPD-L1 or mPD-L1; two independent dilution series, KD model
Settings: both partners purified

T1 sequence (Q15116 25-170): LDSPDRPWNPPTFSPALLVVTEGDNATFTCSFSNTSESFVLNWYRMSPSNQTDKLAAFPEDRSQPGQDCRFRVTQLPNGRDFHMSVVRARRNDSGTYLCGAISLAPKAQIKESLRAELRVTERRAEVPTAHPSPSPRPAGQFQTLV

B1: mouse PD-L1 (ligand)
chain: FTITAPKDLYVVEYGSNVTMECRFPVERELDLLALVVYWEKEDEQVIQFVAGEEDLKPQHSNFRGRASLPKDQLLKGNAALQITDVKLQDAGVYCCIISYGGADYKRITLKVNAPY
modifications: fluorescently labeled in the MST assay with antibodies
notes: PD-L1, mouse; In the h/mICB assay mPD-L1 is endogenous on IFN-gamma-treated B16-F10/TCRAct cells; also called mPD-L1
Kd: 3.2 ± 0.2 µM
